The text below walks through data of the nanobody polyreactivity screen of Harvey et al. (2022).

This series can be described thus: yeast display, Sf9 membrane polyspecificity reagent, FACS + sequencing; frameworks hold sequencing errors. The method, boiled down: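 Galactose induction of a Saccharomyces cerevisiae BJ5465 synthetic nanobody display library ran 36–48 hours. The cells were then stained for 1 hour at 4 °C with 10% biotinylated, detergent-solubilized Sf9 membrane reagent, pulled down on streptavidin microbeads and FACS-sorted into low and high (top ~1%) gates on expression and reagent-binding fluorescence. Labels for polyreactivity follow the gate of origin.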
For “QVQLVESGGGLVQAGGSLRLSCAASGITFSVYAMGWYRQAPGKERELVAAISGSGGSTYYADSVKGRFTISRDNAKNTVYLQMNSLKPEDTAVYYCAARLAQKYSPTRYNYWGQGTQVTVSS”, the “polyreactivity (PSR sort gate)” value is “high polyreactivity”.
As to “QVQLVESGGGLVQAGGSLRLSCAASGITFSVYAMGWYRQAPGKERELVASISSGGTSTYYADSVKGRFTISRDNAKNTVYLQMNSLKPEDTAVYYCAAYSYYTGDQYSYDYWGQGTQVTVSS”, the “polyreactivity (PSR sort gate)” value is “low polyreactivity”.
With “QVQLVESGGGLVQAGGSLRLSCAASGITFSYYAMGWYRQAPGKEREFVAAINWDGGSTYYADSVKGRFTISRDNAKNTVYLQMNSLKPEDTAVYYCNADEFEYIYVDTLNYGDDYWGQGTQVTVSS” the entry was “low polyreactivity”.
“QVQLVESGGGLVQAGGSLRLSCAASGITFTAYAMGWYRQAPGKERELVATINSTGITNYADSVKGRFTISRDNAKNTVYLQMNSLNPEDTAVYYCAADLLDISSYDGMDYWGQGTQVTVSS”: the “polyreactivity (PSR sort gate)” value was “low polyreactivity”.
With “QVQLVESGGGLVQAGGSLRLSCAASGITFTDYAMGWYRQAPGKERELVAAISGIGSTTYYADSVKGRFTISRDNAKNTVYLQMNSLKPEDTAVYYCNALLAYTYWYDYWGQGTQLTVSS”, the “polyreactivity (PSR sort gate)” value is reported as “high polyreactivity”.
For “QVQLVESGGGLVQAGGSLRLSCAASGITFTDYAMGWYRQAPGKERELVAAISSSGGRTYYADSVKGRFTISRDNAKNTVYLQMNSLKPEDTAVYYCAARDYDRTQSGRDYWGQGTQVTVSS” the value was “high polyreactivity”; for “QVQLVESGGGLVQAGGSLRLSCAASGITFTENLMGWYRQAPGKERELVAGISRSGGITYFADSVKGRFTISRDNAKNTVYLQMNSLKPEDTSVYYCAADFYASYSPYYYWGQGTQVTVSS”, “high polyreactivity”; for “QVQLVESGGGLVQAGGSLRLSCAASGITFTFNAMGWYRQAPGKERELVAAISSTTSTKYADSVKGRFTISRDNAKTTVYLQMNSLKPEDTAVYYCARTYWLRYYGYRDDEYDYWGQGTQVTVSS”, “low polyreactivity”.
With “QVQLVESGGGLVQAGGSLRLSCAASGITFTFNAMGWYRQAPGKERELVAAITWSGGSTFYADSVKGRFTISRDNAKNTVDLQMNSLKPEDTAVYYCARDTELYVRWLDYWGQGTQVTVSS” the entry was “low polyreactivity”; with “QVQLVESGGGLVQAGGSLRLSCAASGITFTFNAMGWYRQAPGKERELVAAITWSGGSTFYADSVKGRFTISRDNAKNTVYLQMNSLKPEDTAVYYCARDTELYVRWLDYWGQGTQVSVSS”, “low polyreactivity”.
For “QVQLVESGGGLVQAGGSLRLSCAASGITFTFYAMGWYRQAPGKERELVATIDSGGSTNYADSVKGRFTISRDNAKNTVYLQMNSLKPEDTEVYYCAADGVWYYYDMDYWGQGTQVTVSS” the value was “low polyreactivity”.
With “QVQLVESGGGLVQAGGSLRLSCAASGITFTGYAMGWYRQAPGKERELVAAITSGGGRTYYADSVKGRFTISRDNAKNTVYLQMNSLKPEDTAVYYCAFRYHGYDYWGQGTQVTVSS”, the “polyreactivity (PSR sort gate)” value is “high polyreactivity”.
With “QVQLVESGGGLVQAGGSLRLSCAASGITFTPNAMGWYRPAPGKEREFVAAITYSGGSTYYADSVKGRFTISRDNAKNTVYLQMNSLKPEDTAVYYCAAVYYLLYYEAYYYWGQGTQVTVSS” the entry was “low polyreactivity”; with “QVQLVESGGGLVQAGGSLRLSCAASGITFTPYALGWSRPAPGKERELVAAISASGGNTYYADSVKGRFTISRDNAKNTVYLQMNSLKPDDTAVYYCAAVVAFATGTYYYWGQGTQVTVSS”, “high polyreactivity”; with “QVQLVESGGGLVQAGGSLRLSCAASGITFTRNVMGWYRQAPGKERELVAAISGSGGSTYYADSVKGRFTISRDNAKNTVYLQMNSLKPEDTAVYYCAARSRGGRRYDYWGQGTQVTVSS”, “high polyreactivity”.
Turning to “QVQLVESGGGLVQAGGSLRLSCAASGITFTRYAMGWYRQAPGKEMEFVAAIRRSGGNTYYADSVKGRFTISRDNAKNTVYLQMNSLKPEDTAVYYCAASFRKTSPTRLVDYWGQGTQVTVSS”, the “polyreactivity (PSR sort gate)” value was “low polyreactivity”.
For “QVQLVESGGGLVQAGGSLRLSCAASGITFTSYAMGWYRQAPGKERELVAAISSSGVRTYYADSVKGRFTISRDNAKNTVYLQMNSLKPEDTAVYYCATRRRVLNCYDYWGQGTQVTVSS” the value was “high polyreactivity”.
For “QVQLVESGGGLVQAGGSLRLSCAASGITFTYYVMGWYRQAPGKERELVAAITWRGGRTRYADSVKGRFTISRDNAKNTVYLQMNSLKPEDTAVYYCAADLHQRRYYYWGQGTQVTVSS” the value was “high polyreactivity”; for “QVQLVESGGGLVQAGGSLRLSCAASGITFVANAMGWYRQAPGKERELVAGITQTGGSTYYADSVKGRFTISRDNAKNTVYLQMNSLKPEDTAVYYCAATYRRLRYGKLLYYWGQGTQVTVSS”, “high polyreactivity”.
With “QVQLVESGGGLVQAGGSLRLSCAASGITFVDYAMGWYRQAPGKERELVAAITTGGSTNYADSVKGRFTISRDNAKNTVYLQMNSLKPEDTAVYYCNKRPVILYDYWGQGTQVTVSS” the entry was “low polyreactivity”; with “QVQLVESGGGLVQAGGSLRLSCAASGITFVFNAMGWYRQAPGKERELVASITIGGNTYYADSVKGRFTISRDNAKNTVYLQMNSLKPEDSAVYYCAADIARSVRFYYWGQGTQVTVSS”, “low polyreactivity”; with “QVQLVESGGGLVQAGGSLRLSCAASGITFVFYAMGRYRPAPGKERELVAAISSSGGSTYYADSVKGRFTISRDNAKNTVYLQMNSLKAEDTAVYYCNAKVFSYQGAVRYDYWGQGTQVTVSS”, “high polyreactivity”.
“QVQLVESGGGLVQAGGSLRLSCAASGITFVFYTMGWYRQAPGKERELVAAISRSGASTYYADSVKGRFTISRDNAKNTVYLQMNSLKPEDTAVYYCAADRGYRFRMDYWGQGTQVTVSS”: the “polyreactivity (PSR sort gate)” value is “high polyreactivity”.
For “QVQLVESGGGLVQAGGSLRLSCAASGITFVHYAMGWYRQAPGKEREFVAAITKGGGSTSYADSVKGRFTISRDNAKNTVYLQMNSLKPEDTAVYYCAATYYAYGFSISYYYWGQGTQVTVSS” the value was “high polyreactivity”.
With “QVQLVESGGGLVQAGGSLRLSCAASGITFVHYAMGWYRQAPGKERELVASITRRGGSTYYADSVKGRFTISRDNAKNTVYLQMHSLKPEDTAVYYCAARWSAWSGYIFDYWGQGTQVTVSS” the entry was “high polyreactivity”.
For “QVQLVESGGGLVQAGGSLRLSCAASGITFVNNAMGWYRQAPGKEREFVAAISWSGGNTYYADSVKGRFTISRDNAKNTVYLQMISLKPEDTAVYYCSGYISRSRFRFYYWGQGTQVTVSS” the value was “low polyreactivity”; for “QVQLVESGGGLVQAGGSLRLSCAASGITFVNYAMGWYRQAPGKERELVAAITSGGNTYYADSVKGRFTISRDNAKNTVYLQMNSLKPEDTAVYYCAAKWFYGKPYRGYYYWGQGTQVTVSS”, “high polyreactivity”; for “QVQLVESGGGLVQAGGSLRLSCAASGITFVRYAKGWYRHAPGKEREFVARISRSGASTYYADSVKGRFTISRDNAKNTVYLQMNSLKPEDTAVYYCNAVPGGSRFDYWGQGTQVTVSS”, “high polyreactivity”.
For “QVQLVESGGGLVQAGGSLRLSCAASGITFVRYAMGWYRQAPGKERELVAVISRGGITNYADSVKGRFTISRDNAKNTVYLQMNSMKPEDTAVYYCAVRGRSYVRTYDYWGQGTQVTVSS”, the “polyreactivity (PSR sort gate)” value was “high polyreactivity”.
With “QVQLVESGGGLVQAGGSLRLSCAASGITFVSNVMGWYRQAPGKEREFVAAINVSGDSTTYADSVKGRFTISRDNAKNTVYLQRNSLKPEDTAVYYCAAEYNFPEFPWGGEYDYWGQGTQVTVSS”, the “polyreactivity (PSR sort gate)” value was “low polyreactivity”.
For “QVQLVESGGGLVQAGGSLRLSCAASGITFVYYAMGWYRQAPGKERELVASISSADNTHYADSVKGRFTISRDNAKNTVYLQMNSQKPEDTAVYYCAADYWWNLRHYSTGGYWGQGTQVTVSS” the value was “low polyreactivity”; for “QVQLVESGGGLVQAGGSLRLSCAASGITFWDYAMGWYRQAPGTERELVAANSRSGGSTYYADSVKGRFTISRDNAKKTVYLQMNSLKPEDTAVYFCAAYTRRPIYDYWGQGTQVTVSS”, “high polyreactivity”.
With “QVQLVESGGGLVQAGGSLRLSCAASGITFWGYAMGWYRQAPGKEREFVARINWSGGRTYYAESVKGRFTISRDNAKKTVYLQMNSLKPEDTAVYYCAATSRIYGYRTYDDWGQGTQVTVSS” the entry was “high polyreactivity”.
Regarding “QVQLVESGGGLVQAGGSLRLSCAASGITFWKYTMGWYRQAPGKERELVAAITGRGGSTYYADSVKGRFTISRDNAMNTVYLQMNRLKPEDTAVYYCAAELRPGYRSSYGLIYDYWGQGTQVTVSS”, the “polyreactivity (PSR sort gate)” value is recorded as “low polyreactivity”.
With “QVQLVESGGGLVQAGGSLRLSCAASGITFWNNAMGWYRQAPGKERELVATISSNGGRTYYADSVKGRFTISRDNAKNTVYLQMNSLKPEDTAVYYCNAARRAYGYNYWGQGTQVTVSS” the entry was “low polyreactivity”; with “QVQLVESGGGLVQAGGSLRLSCAASGITFWNYAMGWYRQAPGKERELVARISRGGSTNYADSVKGRFTISRDNAKNTVYLQMNSLKPEDNAVYYCAARWYSSTQTGNYWGQGTQVTVSS”, “high polyreactivity”.
With “QVQLVESGGGLVQAGGSLRLSCAASGITFWSNAMGWYRQAPGKERELVAAITSSGGSTYYADSVKGRFTISRDNAKNNVYLQMNSLKPEDTAVYYCAAPISRSAGWDSYDYWGQGTQVTVSS” the entry was “low polyreactivity”.
With “QVQLVESGGGLVQAGGSLRLSCAASGITFWTYAMGWYIQAPGKERELVAAISNGGSTSYADSVKGRFTISRDNAKNTVYLQMNSLKPEDTAVYYCAADWATHRPWYWWVYYWGQGTQVTVSS” the entry was “low polyreactivity”; with “QVQLVESGGGLVQAGGSLRLSCAASGITFWYYAMGWYRQAPGKERELVAVISRGGSTYYADSVKGRFTISRDNAKNTVYLQMNSLKPEDTAVYYCAARPRWYTYTRQEYDYWGQGTQVTVSS”, “high polyreactivity”; with “QVQLVESGGGLVQAGGSLRLSCAASGITFYDYAMGWYRQAPGKERELVAAINSSGVRTYYADSVKGRFTISRDNAKNTVYLQMNSLKPEVTAVYYCAAVRRGPYISRSDMDYYWGQGTQVTVSS”, “high polyreactivity”.
Take “QVQLVESGGGLVQAGGSLRLSCAASGITFYDYAMGWYRQAPGKERELVAAISFSGSRTYYADSVKGRFTISRDIAKNTVYLQMNSLKPEDTAVYYCAASQARNYKIYDYWGQGTQVTVSS”: the “polyreactivity (PSR sort gate)” value is given as “high polyreactivity”.
